Data on 1 substance can be found in patent US20240319212A1, “METHOD OF MEASURING THE ENDOCYTIC VITAMIN D STATUS” (Immundiagnostik AG, priority 2018, published 2024).

Assay [1] addresses complex of vitamin D binding protein with 25-hydroxyvitamin D3 (DBP:25(OH)D3) (human) (UniProt P02774). The assay can be described thus: MST, NT-647-labelled DBP (50 nM) with VD3 (50 nM), megalin fragment titrated.
The target in assay [2] is vitamin D binding protein (DBP) alone, without added vitamin D metabolite (human) (UniProt P02774). The assay can be described thus: MST, NT-647-labelled DBP (50 nM), megalin fragment titrated, absence of 25-OH vitamin D3; microscale thermophoresis; NT-647-labelled DBP, purified soluble M1 titrated 0.488-1000 nmol/L; absence of 25-OH vitamin D3.
vitamin D binding protein (DBP) alone, without added vitamin D metabolite (human), sequence (P02774 17-474 limits assumed): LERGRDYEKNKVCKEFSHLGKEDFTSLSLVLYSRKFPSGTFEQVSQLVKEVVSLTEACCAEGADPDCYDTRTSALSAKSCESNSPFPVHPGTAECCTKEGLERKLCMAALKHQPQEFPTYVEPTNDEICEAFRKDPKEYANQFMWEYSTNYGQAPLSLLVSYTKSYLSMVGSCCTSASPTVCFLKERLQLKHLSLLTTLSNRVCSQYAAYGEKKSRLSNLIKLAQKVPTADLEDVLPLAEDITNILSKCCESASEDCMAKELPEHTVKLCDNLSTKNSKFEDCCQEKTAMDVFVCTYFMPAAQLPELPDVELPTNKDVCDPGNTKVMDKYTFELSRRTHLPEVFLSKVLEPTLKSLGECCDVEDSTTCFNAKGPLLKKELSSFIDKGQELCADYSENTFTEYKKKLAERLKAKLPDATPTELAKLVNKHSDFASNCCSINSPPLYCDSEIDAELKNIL

complex of vitamin D binding protein with 25-hydroxyvitamin D3 (DBP:25(OH)D3) (human), sequence (P02774 17-474 limits assumed, one chain of several): as the sequence (P02774 17-474 limits assumed) above

In the case of “soluble recombinant megalin M1 fragment (amino acids 26 to 386 of human LRP2/megalin, C-terminal 6x His tag) (from UniProt P98164 26-386) (receptor)”, the dissociation constant (Kd) was determined as 0.0456 µM in assay [1] and 0.442 µM in assay [2].

The term Kd denotes the concentration at which binding is half-saturated.
